Data: the supplement of paper PMC9732359
± gives the uncertainty stated by the source.

Assay: protein stability index of a GFP-peptide fusion (yeast GPS) (PSI 1-4); higher = more stable; sorted into four equal gates, so the index is relative within each strain
Method in brief: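 The protein stability index of a peptide was calculated by multiplying its read frequency in each gate by that gate's number and adding the products. The peptides were tiled 17-residue stretches of yeast proteins, fused downstream of GFP on a Cherry-expressing plasmid and carried in yeast as a pooled library. Mid-log cultures in leucine-free medium were sorted into four equal gates by GFP/Cherry ratio, and each gate's plasmids were PCR-amplified and Illumina-sequenced.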

Row | Sequence | protein stability index (pdr5∆) | protein stability index (ubr1∆) | protein stability index (doa10∆) | protein stability index (san1∆)
1 | VNAITVAQQQVQRQIEQ [SNF5] | 3.14 ± 0.2 | 3 ± 0.17 | – | –
2 | VNCLELLINTNFNKFFK [PCI8] | 1.88 ± 0.048 | 1.99 ± 0.064 | 1.77 ± 0.045 | 1.96 ± 0.065
3 | VNDNDERAARVVKGRVE [RPO31] | 3.36 ± 0.15 | 3.4 ± 0.091 | 3.17 ± 0.16 | 3.15 ± 0.25
4 | VNDVELAFKKNEMLLKR [MTW1] | 3.46 ± 0.14 | 3.11 ± 0.066 | 3.24 ± 0.19 | 3.4 ± 0.14
5 | VNECIAQSHQRFNAKVS [CDC53] | 2.6 ± 0.043 | 2.3 ± 0.027 | 2.15 ± 0.039 | 2.64 ± 0.054
6 | VNEMNDQLAQELKDLET [NNF1] | – | – | 2.9 ± 0.23 | 3.27 ± 0.12
7 | VNGLLQVLMDINTLNGG [GAL11] | 3.03 ± 0.077 | 2.91 ± 0.036 | 2.98 ± 0.079 | 3 ± 0.075
8 | VNQEFIFEAISLSDELN [YJL039C/NUP192] | 2.65 ± 0.067 | 2.75 ± 0.058 | 2.71 ± 0.071 | 2.63 ± 0.051
9 | VNSIALFVGTDRQLHEI [RPN14] | 2.46 ± 0.065 | 2.67 ± 0.074 | 2.43 ± 0.079 | 2.25 ± 0.067
10 | VPKEGLFYFDSSFRPCP [BRR2] | 3.28 ± 0.058 | 3.14 ± 0.039 | 3.17 ± 0.068 | 3.38 ± 0.046
11 | VPKLESSRTKFWSFLDS [YJL039C/NUP192] | – | 1.44 ± 0.096 | 1.61 ± 0.29 | 1.61 ± 0.13
12 | VPLAMGIVSVSDPQMKV [RPN1] | 1.63 ± 0.054 | 1.51 ± 0.051 | 1.39 ± 0.041 | 1.43 ± 0.1
13 | VPNSSDQAELPNNASSH [SNF2] | 2.85 ± 0.21 | 2.74 ± 0.16 | 2.26 ± 0.13 | –
14 | VPPILIILPLDNATLTE [SSN2] | 2.71 ± 0.11 | 2.51 ± 0.087 | 2.97 ± 0.1 | 2.58 ± 0.16
15 | VPSHVPQVLINRDPVKH [SIR2] | 3 ± 0.088 | 2.76 ± 0.098 | 2.52 ± 0.13 | 3.06 ± 0.12
16 | VPSYIHVEKERASTELS [YIL149C/MLP2] | 2.46 ± 0.069 | 2.77 ± 0.054 | 2.33 ± 0.1 | 2.76 ± 0.084
17 | VPTGGASSAAAGAAGAA [RPP2B] | 3.04 ± 0.083 | 2.97 ± 0.1 | 2.88 ± 0.11 | 3.17 ± 0.07
18 | VPVRDGVTIEFSTNVKD [RPL9A] | 1.58 ± 0.26 | – | 1.35 ± 0.27 | –
19 | VQASVTSSTHERKSKTY [RET1] | 2.78 ± 0.079 | 2.97 ± 0.061 | 2.6 ± 0.066 | 2.55 ± 0.056
20 | VQCHGSFATATCVTCHW [SIR2] | 2.55 ± 0.046 | 2.51 ± 0.031 | 2.28 ± 0.047 | 2.26 ± 0.045
21 | VQDKDTLSNAERAKNVN [GAL11] | 2.71 ± 0.23 | 2.91 ± 0.12 | – | 2.71 ± 0.18
22 | VQLPILKIIYTGLCSFD [YJL039C/NUP192] | 1.76 ± 0.043 | 1.76 ± 0.058 | 1.41 ± 0.055 | 1.26 ± 0.12
23 | VQRTMLELLNQLDGFSS [RPT5] | 2.88 ± 0.072 | 2.99 ± 0.05 | 2.99 ± 0.078 | 2.83 ± 0.063
24 | VQSQVDSSSVSEDSAVF [FAS1] | 3.33 ± 0.08 | 3.29 ± 0.049 | 3.11 ± 0.072 | 3.12 ± 0.047
25 | VQYLSGAHGNSDPVCLF [POP3] | 2.83 ± 0.18 | 2.75 ± 0.063 | 2.96 ± 0.12 | 3.04 ± 0.11
26 | VRDELRKVEKEKNEKER [UBP6] | – | 3.78 ± 0.2 | – | 3.5 ± 0.13
27 | VRHGRAGATTSRFIPLK [RPS15] | 2.56 ± 0.062 | 3.06 ± 0.064 | 2.62 ± 0.076 | 2.89 ± 0.042

Row | Sequence | protein stability index (pdr5∆) | protein stability index (ubr1∆) | protein stability index (doa10∆) | protein stability index (san1∆)
28 | VRIFTKIESEDDYILSG [SRB4] | – | 2.79 ± 0.092 | – | –
29 | VRIHSIQVLTEASSLGY [IRR1] | 1.64 ± 0.12 | – | 1.49 ± 0.22 | –
30 | VRLPTKVLKISTRKTPN [RPS20] | 2.22 ± 0.089 | 2.42 ± 0.084 | 1.83 ± 0.087 | 1.7 ± 0.15
31 | VRNKSYPVYTRLRTLCR [DIS3] | 2.83 ± 0.072 | 2.46 ± 0.051 | 2.65 ± 0.08 | 3.06 ± 0.11
32 | VRNVKGPVRENDILVLM [RPS28A] | 3.04 ± 0.1 | 2.98 ± 0.074 | 3.24 ± 0.11 | 3.5 ± 0.13
33 | VRPFGVSTLIAGFDPRD [PRE6] | 1.7 ± 0.13 | 1.41 ± 0.084 | 1.5 ± 0.15 | 1.75 ± 0.17
34 | VRSTIKFQLKKVLCLAV [RPL1A] | 1.35 ± 0.053 | 1.18 ± 0.037 | 1.45 ± 0.051 | 1.29 ± 0.089
35 | VRTSATFRLPKTLKLAR [RPL25] | 2.35 ± 0.12 | 2.72 ± 0.14 | 2.84 ± 0.1 | 1.74 ± 0.26
36 | VRYGSSLRRQVKKLEIQ [RPL43A] | – | – | – | 2.55 ± 0.2
37 | VSEGTRAVTKYSSSTQA [HTB1] | 3.15 ± 0.1 | 3.02 ± 0.071 | 2.99 ± 0.066 | 3.16 ± 0.054
38 | VSHHATTFTHCEIHPSM [RPB2] | 3.22 ± 0.069 | 2.96 ± 0.062 | 3.12 ± 0.076 | 2.46 ± 0.12
39 | VSIDIEEPQLDLLDDVL [MTW1] | 3.09 ± 0.067 | 3.19 ± 0.048 | 2.62 ± 0.094 | 3.24 ± 0.045
40 | VSKSEPKFFLGEENRVR [QCR2] | 3.18 ± 0.077 | 3.26 ± 0.048 | 3.42 ± 0.097 | 3.13 ± 0.053
41 | VSMVKRAIDSLIQKGYL [CDC53] | 1.82 ± 0.058 | 1.74 ± 0.052 | 1.74 ± 0.053 | 2.03 ± 0.11
42 | VSNILSAFKFIHTQLSE [YJL039C/NUP192] | 1.92 ± 0.048 | 1.58 ± 0.037 | 2.19 ± 0.061 | 1.47 ± 0.094
43 | VSNSGAQDEEIHKQIVI [UBP6] | 3.5 ± 0.14 | 3.16 ± 0.11 | 3.17 ± 0.16 | 3.08 ± 0.14
44 | VSPNAAPRQEISEEETT [YAR002W/NUP60] | 2.88 ± 0.077 | 2.6 ± 0.12 | 3.19 ± 0.1 | 2.9 ± 0.086
45 | VSQMVAVVGQQIISGNR [RPO31] | 3.14 ± 0.15 | 2.68 ± 0.13 | 3.2 ± 0.14 | 3 ± 0.094
46 | VSTEGNVPQTLAPVPYE [RPL21A] | 3.02 ± 0.085 | 3.05 ± 0.068 | 3.19 ± 0.072 | 3.11 ± 0.05
47 | VSTLIAGFDPRDDEPKL [PRE6] | – | – | – | 3.12 ± 0.077
48 | VSVEGVNVEKFNVEYFA [RPL6A] | 3.21 ± 0.067 | 3.16 ± 0.054 | 2.91 ± 0.069 | 3.14 ± 0.042
49 | VSYMMPSLYRLLNILIT [SRB8] | 1.21 ± 0.07 | 1.3 ± 0.057 | 1.22 ± 0.12 | 1.1 ± 0.12
50 | VTGFAEVGPWGSARTRW [FAS2] | 3.03 ± 0.086 | 2.06 ± 0.071 | 2.24 ± 0.079 | 2.73 ± 0.093
51 | VTHDCYRVTLESILQMN [RPC34] | 2.39 ± 0.27 | – | 3.29 ± 0.28 | 2.66 ± 0.16
52 | VTLNKYCSGNIYDFHKM [YJL039C/NUP192] | 2.81 ± 0.051 | 2.78 ± 0.041 | 2.7 ± 0.044 | 2.91 ± 0.04
53 | VTNIRRIIQDNISPRLV [RRP46] | 2.63 ± 0.1 | 2.23 ± 0.074 | 2.3 ± 0.09 | –
54 | VTNNVEEGEFIIDLYSL [TAF14] | 3.48 ± 0.083 | 3.54 ± 0.06 | 3.38 ± 0.085 | 3.58 ± 0.057
